Biological target: myelin basic protein peptide on HLA-DRB1*15:01 (human)
Experiment: estimate stated in the description; not measured in this filing

Ob.1A12
Kd: > 100 µM

From US12649772B2
